The supplement of paper PMC10899765

The sequences below were run on MCF10A (assay: 5+ nucleoli phenotype percent effect (relative to siNT 0% and siKIF11 100%); higher = more cells with five or more nucleoli). Settings: 20 nM; 72 h.
Method: (§1)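 After 72 h, cells were fixed and stained with Hoechst and anti-fibrillarin, and nucleoli per nucleus were counted with CellProfiler. Values are plate-adjusted percent effect for the one-nucleolus and 5+ nucleoli phenotypes, normalised to siNT (0%) and to the positive controls siNOL11 or siKIF11 (100%), as the mean of biological triplicates. Percent viability is the nuclei count relative to siNT.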

| Sequence | 5+ nucleoli phenotype percent effect [%] |
| --- | --- |
| UCCCCAACCCCUGCCCGCAG [hsa-miR-6793-3p] | -15.2 |
| ACCUGGACCCAGCGUAGACAAAG [hsa-miR-3690] | 65 |
| AGGGCAUAGGAGAGGGUUGAUAU [hsa-miR-3945] | 34.8 |
| AGAAGAAGGCGGUCGGUCUGCGG [hsa-miR-3185] | -27.8 |
| CAGGGCUGGCAGUGACAUGGGU [hsa-miR-4446-3p] | -5.74 |
| CCGGCAUGUCCAGGGCA [hsa-miR-4304] | 3.17 |
| GCUCAGGGAUGAUAACUGUGCUGAGA [hsa-miR-4518] | 31.9 |
| GUCAUACACGGCUCUCCUCUCU [hsa-miR-485-3p] | -1.94 |
| UACCCAGUCUCCGGUGCAGCC [hsa-miR-3130-5p] | -32.6 |
| UUUCUUCUUAGACAUGGCAACG [hsa-miR-4659a-3p] | -14.6 |
| UUCAGCCAGGCUAGUGCAGUCU [hsa-miR-3157-5p] | -4.24 |
| CACUGGCUCCUUUCUGGGUAGA [hsa-miR-892b] | -22.8 |
| AGGGAGAAAGCUAGAAGCUGAAG [hsa-miR-6878-5p] | 44.5 |
| AGGUUACCCGAGCAACUUUGCAU [hsa-miR-409-5p] | -20.6 |
| CAGUUAUCACAGUGCUGAUGCU [hsa-miR-101-5p] | -23.5 |
| UGUAGAGCAGGGAGCAGGAAGCU [hsa-miR-4732-5p] | -0.0062 |
| AAUAGGCCACGGAUCUGGGCAA [hsa-miR-1295b-3p] | 4.51 |
| UUGAAGGGACAAGUCAGAUAUGCC [hsa-miR-6864-5p] | -1.47 |
| GUUUCACCAUGUUGGUCAGGC [hsa-miR-5096] | -17.6 |
| CUCCCCGGCCUCUGCCCCCAG [hsa-miR-6763-3p] | 39.1 |
| GUGAGGACUCGGGAGGUGG [hsa-miR-1224-5p] | -12.6 |
| UGCGACAUUGGAAGUAGUAUCA [hsa-miR-3683] | -3.56 |

| Sequence | 5+ nucleoli phenotype percent effect [%] |
| --- | --- |
| UCUAGAAAUGCAUGACCCACC [hsa-miR-6508-5p] | 17.2 |
| UCUCUCGGCUCCUCGCGGCUC [hsa-miR-3615] | 27.8 |
| UUAGCUUAAGGAGUACCAGAUC [hsa-miR-5579-3p] | 7.97 |
| GCUAUUUCACGACACCAGGGUU [hsa-miR-138-2-3p] | -22.8 |
| GGGGCUGUGAUUGACCAGCAGG [hsa-miR-4675] | -11.5 |
| ACACAUGGGUGGCUGUGGCCU [hsa-miR-4717-3p] | 24.6 |
| GCUGACAGCAGGGCUGGCCGCU [hsa-miR-4526] | 16.9 |
| ACUCAAACUGUGGGGGCACU [hsa-miR-371a-5p] | 15.8 |
| AACUGGCCUACAAAGUCCCAGU [hsa-miR-193a-3p] | -15.2 |
| CUUUGCUUCCUGCUCCCCUAG [hsa-miR-6885-3p] | -17.3 |
| GAAAAUCCUUUUUGUUUUUCCAG [hsa-miR-4668-3p] | 28.5 |
| CUAUAUAUCAAACAUAUUCCU [hsa-miR-190a-3p] | 35.7 |
| CAAAAACCAUAGUUACUUUUGC [hsa-miR-548bb-3p] | 40.6 |
| CUAGGUGGGGGGCUUGAAGC [hsa-miR-6802-5p] | -17 |
| AUGGUCACCUCCGGGACU [hsa-miR-5587-5p] | 41.6 |
| CGCUUUGCUCAGCCAGUGUAG [hsa-miR-1251-3p] | -13.1 |
| UAGGGGGUGGCAGGCUGGCC [hsa-miR-6732-5p] | -15.7 |
| AGCUUCUUUACAGUGCUGCCUUG [hsa-miR-103a-2-5p] | -36.6 |
| GUGAGUCUCUAAGAAAAGAGGA [hsa-miR-627] | 7.75 |
| AGAAAGGUGGAGGGGUUGUCAGA [hsa-miR-6730-5p] | -33.5 |
| ACAUUUUCCAGCCCAUUCA [hsa-miR-1250-3p] | -18.3 |
| UCUGGGCACAGGCGGAUGGACAGG [hsa-miR-5189] | -2.97 |

The sequences below were run on MCF10A (assay: one-nucleolus phenotype percent effect (relative to siNT 0% and siNOL11 100%); higher = more cells with one nucleolus (ribosome biogenesis inhibition)). Settings: 20 nM; 72 h.
Method: as §1

| Sequence | one-nucleolus phenotype percent effect [%] |
| --- | --- |
| UCCCCAACCCCUGCCCGCAG [hsa-miR-6793-3p] | 13.9 |
| ACCUGGACCCAGCGUAGACAAAG [hsa-miR-3690] | -25.7 |
| AGGGCAUAGGAGAGGGUUGAUAU [hsa-miR-3945] | -1.06 |
| AGAAGAAGGCGGUCGGUCUGCGG [hsa-miR-3185] | 33.8 |
| CAGGGCUGGCAGUGACAUGGGU [hsa-miR-4446-3p] | 1.33 |
| CCGGCAUGUCCAGGGCA [hsa-miR-4304] | 14.3 |
| GCUCAGGGAUGAUAACUGUGCUGAGA [hsa-miR-4518] | -10.2 |
| GUCAUACACGGCUCUCCUCUCU [hsa-miR-485-3p] | -9.37 |
| UACCCAGUCUCCGGUGCAGCC [hsa-miR-3130-5p] | 44 |
| UUUCUUCUUAGACAUGGCAACG [hsa-miR-4659a-3p] | -9.58 |
| UUCAGCCAGGCUAGUGCAGUCU [hsa-miR-3157-5p] | 7.66 |
| CACUGGCUCCUUUCUGGGUAGA [hsa-miR-892b] | 27.6 |
| AGGGAGAAAGCUAGAAGCUGAAG [hsa-miR-6878-5p] | -18.3 |
| AGGUUACCCGAGCAACUUUGCAU [hsa-miR-409-5p] | 42.3 |
| CAGUUAUCACAGUGCUGAUGCU [hsa-miR-101-5p] | 8.44 |
| UGUAGAGCAGGGAGCAGGAAGCU [hsa-miR-4732-5p] | 6.48 |
| AAUAGGCCACGGAUCUGGGCAA [hsa-miR-1295b-3p] | 28.6 |
| UUGAAGGGACAAGUCAGAUAUGCC [hsa-miR-6864-5p] | 17.8 |
| GUUUCACCAUGUUGGUCAGGC [hsa-miR-5096] | 21.9 |
| CUCCCCGGCCUCUGCCCCCAG [hsa-miR-6763-3p] | -28.1 |
| GUGAGGACUCGGGAGGUGG [hsa-miR-1224-5p] | 16.9 |
| UGCGACAUUGGAAGUAGUAUCA [hsa-miR-3683] | -0.47 |

| Sequence | one-nucleolus phenotype percent effect [%] |
| --- | --- |
| UCUAGAAAUGCAUGACCCACC [hsa-miR-6508-5p] | -15.2 |
| UCUCUCGGCUCCUCGCGGCUC [hsa-miR-3615] | -7.12 |
| UUAGCUUAAGGAGUACCAGAUC [hsa-miR-5579-3p] | -7.52 |
| GCUAUUUCACGACACCAGGGUU [hsa-miR-138-2-3p] | 4.26 |
| GGGGCUGUGAUUGACCAGCAGG [hsa-miR-4675] | 10.5 |
| ACACAUGGGUGGCUGUGGCCU [hsa-miR-4717-3p] | -12.1 |
| GCUGACAGCAGGGCUGGCCGCU [hsa-miR-4526] | -0.679 |
| ACUCAAACUGUGGGGGCACU [hsa-miR-371a-5p] | 3.21 |
| AACUGGCCUACAAAGUCCCAGU [hsa-miR-193a-3p] | 29.5 |
| CUUUGCUUCCUGCUCCCCUAG [hsa-miR-6885-3p] | -5.84 |
| GAAAAUCCUUUUUGUUUUUCCAG [hsa-miR-4668-3p] | -14.6 |
| CUAUAUAUCAAACAUAUUCCU [hsa-miR-190a-3p] | -19.5 |
| CAAAAACCAUAGUUACUUUUGC [hsa-miR-548bb-3p] | -26 |
| CUAGGUGGGGGGCUUGAAGC [hsa-miR-6802-5p] | 9.83 |
| AUGGUCACCUCCGGGACU [hsa-miR-5587-5p] | -15.8 |
| CGCUUUGCUCAGCCAGUGUAG [hsa-miR-1251-3p] | 18.6 |
| UAGGGGGUGGCAGGCUGGCC [hsa-miR-6732-5p] | 17.1 |
| AGCUUCUUUACAGUGCUGCCUUG [hsa-miR-103a-2-5p] | 7.49 |
| GUGAGUCUCUAAGAAAAGAGGA [hsa-miR-627] | -10.4 |
| AGAAAGGUGGAGGGGUUGUCAGA [hsa-miR-6730-5p] | 47.3 |
| ACAUUUUCCAGCCCAUUCA [hsa-miR-1250-3p] | 53.7 |
| UCUGGGCACAGGCGGAUGGACAGG [hsa-miR-5189] | 29.3 |

The sequences below were run on MCF10A (assay: percent viability (nuclei count relative to siNT); higher = more viable cells). Settings: 20 nM; 72 h.
Method: as §1

| Sequence | percent viability [%] |
| --- | --- |
| UCCCCAACCCCUGCCCGCAG [hsa-miR-6793-3p] | 27.6 |
| ACCUGGACCCAGCGUAGACAAAG [hsa-miR-3690] | 79.1 |
| AGGGCAUAGGAGAGGGUUGAUAU [hsa-miR-3945] | 27.2 |
| AGAAGAAGGCGGUCGGUCUGCGG [hsa-miR-3185] | 29.1 |
| CAGGGCUGGCAGUGACAUGGGU [hsa-miR-4446-3p] | 25.9 |
| CCGGCAUGUCCAGGGCA [hsa-miR-4304] | 25.4 |
| GCUCAGGGAUGAUAACUGUGCUGAGA [hsa-miR-4518] | 55.6 |
| GUCAUACACGGCUCUCCUCUCU [hsa-miR-485-3p] | 54.4 |
| UACCCAGUCUCCGGUGCAGCC [hsa-miR-3130-5p] | 27.4 |
| UUUCUUCUUAGACAUGGCAACG [hsa-miR-4659a-3p] | 51.4 |
| UUCAGCCAGGCUAGUGCAGUCU [hsa-miR-3157-5p] | 20.1 |
| CACUGGCUCCUUUCUGGGUAGA [hsa-miR-892b] | 25.4 |
| AGGGAGAAAGCUAGAAGCUGAAG [hsa-miR-6878-5p] | 72.6 |
| AGGUUACCCGAGCAACUUUGCAU [hsa-miR-409-5p] | 21.8 |
| CAGUUAUCACAGUGCUGAUGCU [hsa-miR-101-5p] | 33.9 |
| UGUAGAGCAGGGAGCAGGAAGCU [hsa-miR-4732-5p] | 23.8 |
| AAUAGGCCACGGAUCUGGGCAA [hsa-miR-1295b-3p] | 13.8 |
| UUGAAGGGACAAGUCAGAUAUGCC [hsa-miR-6864-5p] | 25.6 |
| GUUUCACCAUGUUGGUCAGGC [hsa-miR-5096] | 49 |
| CUCCCCGGCCUCUGCCCCCAG [hsa-miR-6763-3p] | 96.4 |
| GUGAGGACUCGGGAGGUGG [hsa-miR-1224-5p] | 53.3 |
| UGCGACAUUGGAAGUAGUAUCA [hsa-miR-3683] | 61.1 |

| Sequence | percent viability [%] |
| --- | --- |
| UCUAGAAAUGCAUGACCCACC [hsa-miR-6508-5p] | 112 |
| UCUCUCGGCUCCUCGCGGCUC [hsa-miR-3615] | 69.8 |
| UUAGCUUAAGGAGUACCAGAUC [hsa-miR-5579-3p] | 65.6 |
| GCUAUUUCACGACACCAGGGUU [hsa-miR-138-2-3p] | 43.1 |
| GGGGCUGUGAUUGACCAGCAGG [hsa-miR-4675] | 24.1 |
| ACACAUGGGUGGCUGUGGCCU [hsa-miR-4717-3p] | 66.4 |
| GCUGACAGCAGGGCUGGCCGCU [hsa-miR-4526] | 59.2 |
| ACUCAAACUGUGGGGGCACU [hsa-miR-371a-5p] | 79.6 |
| AACUGGCCUACAAAGUCCCAGU [hsa-miR-193a-3p] | 21.9 |
| CUUUGCUUCCUGCUCCCCUAG [hsa-miR-6885-3p] | 41.6 |
| GAAAAUCCUUUUUGUUUUUCCAG [hsa-miR-4668-3p] | 72.8 |
| CUAUAUAUCAAACAUAUUCCU [hsa-miR-190a-3p] | 67.4 |
| CAAAAACCAUAGUUACUUUUGC [hsa-miR-548bb-3p] | 103 |
| CUAGGUGGGGGGCUUGAAGC [hsa-miR-6802-5p] | 33.9 |
| AUGGUCACCUCCGGGACU [hsa-miR-5587-5p] | 60.6 |
| CGCUUUGCUCAGCCAGUGUAG [hsa-miR-1251-3p] | 76.2 |
| UAGGGGGUGGCAGGCUGGCC [hsa-miR-6732-5p] | 33.3 |
| AGCUUCUUUACAGUGCUGCCUUG [hsa-miR-103a-2-5p] | 36.7 |
| GUGAGUCUCUAAGAAAAGAGGA [hsa-miR-627] | 62.9 |
| AGAAAGGUGGAGGGGUUGUCAGA [hsa-miR-6730-5p] | 24.7 |
| ACAUUUUCCAGCCCAUUCA [hsa-miR-1250-3p] | 12.3 |
| UCUGGGCACAGGCGGAUGGACAGG [hsa-miR-5189] | 34.5 |
